{
  "source": "paper PMC2874204",
  "about": "(Cancer cell, 2010)",
  "target": "RUNX1 Runt domain (UniProt Q01196 50-178)",
  "sequence (Q01196 50-178)": "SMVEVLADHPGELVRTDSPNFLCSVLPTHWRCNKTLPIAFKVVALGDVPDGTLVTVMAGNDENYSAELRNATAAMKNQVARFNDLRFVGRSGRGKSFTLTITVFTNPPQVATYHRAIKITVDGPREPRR",
  "assay": "ITC",
  "data": [
    {"binder": "CBFβ-SMMHC_(d134-236) (type I CBFβ-SMMHC fusion protein) (other) MPRVVPDQRSKFENEEFFRKLSRECEIKYTGFRDRPHEERQARFQNACRDGRSEIAFVATGTNLSLQFFPASWQGEQRQTPSREYVDLEREAGKVYLKAPMILNGVCVIWKGWIDLQRLDGMGCLEFDEERAQLHEYETELEDERKQRALAAAAKKKLEGDLKDLELQADSAIKGREEAIKQLRKLQAQMKDFQRELEDARASRDEIFATAKENEKKAKSLEADLMQLQEDLAAAERARKQADLEKEELAEELASSLSGRNALQDEKRRLEARIAQLEEELEEEQGNMEAMSDRVRKATQQAEQLSNELATERSTAQKNESARQQLERQNKELRSKLHEMEGAVKSKFKSTIAALEAKIAQLEEQVEQEAREKQAATKSLKQKDKKLKEILLQVEDERKMAEQYKEQAEKGNARVKQLKRQLEEAEEESQRINANRRKLQRELDEATESNEAMGREVNALKSKLRRGNETSFVPSRRSGGRRVIENADGSEEETDTRDADFNGTKASE", "values": [
      {"measurement": "Kd", "value": "~709", "unit": "nM"},
      {"measurement": "stoichiometry N", "value": 1.17}
    ]}
  ]
}
